Laboratory results taken from the Human Domainome abundance scans (Beltran et al. 2025).
± gives the uncertainty stated by the source.

Test: abundance fitness (aPCA) (normalised: wild type 0, dead -1); higher = more abundant; growth selection in yeast, the domain comes from the species named
Settings: Homo sapiens
“SAFB-like transcription modulator R37Y, Q9NWH9” gave an abundance fitness of -0.722 ± 0.16.
“BAG family molecular chaperone regulator 3 K29C, O95817” showed an abundance fitness of -0.369 ± 0.24.
Substance “SAFB-like transcription modulator D40I, Q9NWH9” has an abundance fitness of -0.357 ± 0.092.
Substance “BAG family molecular chaperone regulator 3 I28A, O95817” has an abundance fitness of -0.423 ± 0.2.
“BAG family molecular chaperone regulator 3 D51G, O95817” gave an abundance fitness of -0.62 ± 0.19.
Work on “SAFB-like transcription modulator I22L, Q9NWH9” yielded an abundance fitness of -0.115 ± 0.061.
Work on “SAFB-like transcription modulator N38W, Q9NWH9” yielded an abundance fitness of -0.368 ± 0.037.
With “BAG family molecular chaperone regulator 3 A13W, O95817” the abundance fitness was -0.774 ± 0.32.
“SAFB-like transcription modulator V27S, Q9NWH9” gave an abundance fitness of -0.417 ± 0.097.
Substance “BAG family molecular chaperone regulator 3 P52T, O95817” has an abundance fitness of -1.12 ± 0.39.
Work on “BAG family molecular chaperone regulator 3 N16I, O95817” yielded an abundance fitness of 0.113 ± 0.19.
Substance “SAFB-like transcription modulator V44S, Q9NWH9” has an abundance fitness of 0.036 ± 0.051.
For “SAFB-like transcription modulator K53V, Q9NWH9”, the abundance fitness was -0.184 ± 0.051.
Work on “BAG family molecular chaperone regulator 3 G58C, O95817” yielded an abundance fitness of -0.17 ± 0.25.
Substance “SAFB-like transcription modulator E57W, Q9NWH9” has an abundance fitness of -0.124 ± 0.059.
In the case of “SAFB-like transcription modulator L39V, Q9NWH9”, the abundance fitness is reported as -0.356 ± 0.059.
With “BAG family molecular chaperone regulator 3 S14D, O95817” the abundance fitness was 0.102 ± 0.14.
“SAFB-like transcription modulator E58H, Q9NWH9” showed an abundance fitness of 0.147 ± 0.084.
In the case of “BAG family molecular chaperone regulator 3 D41H, O95817”, the abundance fitness is reported as -0.541 ± 0.095.
In the case of “BAG family molecular chaperone regulator 3 T34M, O95817”, the abundance fitness is reported as 0.01 ± 0.23.
In the case of “SAFB-like transcription modulator D29Q, Q9NWH9”, the abundance fitness is reported as -0.084 ± 0.07.
For “BAG family molecular chaperone regulator 3 D41V, O95817”, the abundance fitness was -0.851 ± 0.099.
Work on “SAFB-like transcription modulator T23G, Q9NWH9” yielded an abundance fitness of -0.072 ± 0.034.
With “SAFB-like transcription modulator K53C, Q9NWH9” the abundance fitness was -0.231 ± 0.052.
For “SAFB-like transcription modulator G61P, Q9NWH9”, the abundance fitness was -0.31 ± 0.062.
“BAG family molecular chaperone regulator 3 S56P, O95817” showed an abundance fitness of -0.572 ± 0.27.
Work on “SAFB-like transcription modulator P63L, Q9NWH9” yielded an abundance fitness of -0.213 ± 0.038.
With “SAFB-like transcription modulator S32M, Q9NWH9” the abundance fitness was -0.051 ± 0.044.
With “BAG family molecular chaperone regulator 3 W49D, O95817” the abundance fitness was -0.572 ± 0.44.
With “SAFB-like transcription modulator L39F, Q9NWH9” the abundance fitness was -0.409 ± 0.077.
“BAG family molecular chaperone regulator 3 P55S, O95817” gave an abundance fitness of 0.153 ± 0.17.
Substance “BAG family molecular chaperone regulator 3 R19V, O95817” has an abundance fitness of -0.221 ± 0.073.
In the case of “SAFB-like transcription modulator D40L, Q9NWH9”, the abundance fitness is reported as -0.35 ± 0.066.
For “SAFB-like transcription modulator K45G, Q9NWH9”, the abundance fitness was -0.2 ± 0.066.
“SAFB-like transcription modulator I66C, Q9NWH9” gave an abundance fitness of 0.196 ± 0.11.
With “BAG family molecular chaperone regulator 3 Q11D, O95817” the abundance fitness was -0.046 ± 0.4.
“BAG family molecular chaperone regulator 3 D18L, O95817” gave an abundance fitness of -0.313 ± 0.12.
Work on “SAFB-like transcription modulator K21A, Q9NWH9” yielded an abundance fitness of -0.182 ± 0.033.
With “SAFB-like transcription modulator I28S, Q9NWH9” the abundance fitness was -0.411 ± 0.12.
With “BAG family molecular chaperone regulator 3 P24R, O95817” the abundance fitness was -0.037 ± 0.085.
“SAFB-like transcription modulator K20L, Q9NWH9” showed an abundance fitness of -0.21 ± 0.078.
With “BAG family molecular chaperone regulator 3 A13Q, O95817” the abundance fitness was -0.167 ± 0.086.
Work on “BAG family molecular chaperone regulator 3 F39G, O95817” yielded an abundance fitness of -0.436 ± 0.067.
Work on “BAG family molecular chaperone regulator 3 G25V, O95817” yielded an abundance fitness of -1.23 ± 0.33.
With “SAFB-like transcription modulator T23M, Q9NWH9” the abundance fitness was -0.06 ± 0.038.
Substance “BAG family molecular chaperone regulator 3 R45Q, O95817” has an abundance fitness of 0.541 ± 0.17.
“SAFB-like transcription modulator L48A, Q9NWH9” showed an abundance fitness of -0.432 ± 0.053.
“BAG family molecular chaperone regulator 3 V12G, O95817” showed an abundance fitness of -0.443 ± 0.069.
Work on “BAG family molecular chaperone regulator 3 D51Y, O95817” yielded an abundance fitness of -0.45 ± 0.4.
Substance “SAFB-like transcription modulator L34M, Q9NWH9” has an abundance fitness of -0.678 ± 0.1.
Work on “BAG family molecular chaperone regulator 3 E57N, O95817” yielded an abundance fitness of 0.759 ± 0.22.
Substance “SAFB-like transcription modulator I56D, Q9NWH9” has an abundance fitness of -0.286 ± 0.3.
“SAFB-like transcription modulator E33A, Q9NWH9” gave an abundance fitness of -0.455 ± 0.068.
Work on “SAFB-like transcription modulator I22H, Q9NWH9” yielded an abundance fitness of -0.471 ± 0.12.
“SAFB-like transcription modulator I66Y, Q9NWH9” gave an abundance fitness of 0.007 ± 0.16.
With “BAG family molecular chaperone regulator 3 G15E, O95817” the abundance fitness was 1 ± 0.094.
Substance “SAFB-like transcription modulator G61Q, Q9NWH9” has an abundance fitness of -0.141 ± 0.066.
Work on “BAG family molecular chaperone regulator 3 N50W, O95817” yielded an abundance fitness of 0.441 ± 0.15.
Work on “BAG family molecular chaperone regulator 3 V54F, O95817” yielded an abundance fitness of -0.375 ± 0.31.
“SAFB-like transcription modulator E57V, Q9NWH9” gave an abundance fitness of -0.064 ± 0.063.
“BAG family molecular chaperone regulator 3 S44D, O95817” gave an abundance fitness of -0.557 ± 0.47.
Work on “SAFB-like transcription modulator D40H, Q9NWH9” yielded an abundance fitness of -0.614 ± 0.24.
“BAG family molecular chaperone regulator 3 N50S, O95817” gave an abundance fitness of -0.26 ± 0.085.
In the case of “BAG family molecular chaperone regulator 3 G35C, O95817”, the abundance fitness is reported as 0.146 ± 0.17.
“BAG family molecular chaperone regulator 3 W26G, O95817” gave an abundance fitness of -0.653 ± 0.17.
Work on “SAFB-like transcription modulator L25A, Q9NWH9” yielded an abundance fitness of -0.385 ± 0.032.
Work on “SAFB-like transcription modulator D64K, Q9NWH9” yielded an abundance fitness of -0.171 ± 0.058.
For “SAFB-like transcription modulator L68R, Q9NWH9”, the abundance fitness was -0.165 ± 0.067.
In the case of “SAFB-like transcription modulator G60K, Q9NWH9”, the abundance fitness is reported as -0.162 ± 0.052.
Work on “SAFB-like transcription modulator S50V, Q9NWH9” yielded an abundance fitness of -0.38 ± 0.072.
“SAFB-like transcription modulator E57S, Q9NWH9” showed an abundance fitness of -0.031 ± 0.056.
With “SAFB-like transcription modulator L48V, Q9NWH9” the abundance fitness was -0.607 ± 0.054.
“SAFB-like transcription modulator D24H, Q9NWH9” showed an abundance fitness of -0.145 ± 0.034.
In the case of “SAFB-like transcription modulator K53M, Q9NWH9”, the abundance fitness is reported as -0.407 ± 0.12.
For “BAG family molecular chaperone regulator 3 W26V, O95817”, the abundance fitness was -0.467 ± 0.2.
“BAG family molecular chaperone regulator 3 D31F, O95817” showed an abundance fitness of -1.13 ± 0.34.
“BAG family molecular chaperone regulator 3 P52M, O95817” showed an abundance fitness of -1.07 ± 0.46.
With “SAFB-like transcription modulator R26M, Q9NWH9” the abundance fitness was -0.098 ± 0.092.
“SAFB-like transcription modulator D29N, Q9NWH9” gave an abundance fitness of -0.483 ± 0.063.
In the case of “BAG family molecular chaperone regulator 3 D18H, O95817”, the abundance fitness is reported as -0.394 ± 0.17.
For “SAFB-like transcription modulator K53N, Q9NWH9”, the abundance fitness was -0.295 ± 0.11.
Work on “BAG family molecular chaperone regulator 3 G58N, O95817” yielded an abundance fitness of 0.51 ± 0.35.
Work on “BAG family molecular chaperone regulator 3 D41N, O95817” yielded an abundance fitness of -0.664 ± 0.12.
Substance “BAG family molecular chaperone regulator 3 D51F, O95817” has an abundance fitness of -0.234 ± 0.48.
Work on “BAG family molecular chaperone regulator 3 V12D, O95817” yielded an abundance fitness of 0.092 ± 0.16.
For “SAFB-like transcription modulator V27W, Q9NWH9”, the abundance fitness was -0.396 ± 0.09.
With “SAFB-like transcription modulator R51G, Q9NWH9” the abundance fitness was -0.574 ± 0.078.
Work on “BAG family molecular chaperone regulator 3 G15K, O95817” yielded an abundance fitness of 1.15 ± 0.12.
With “SAFB-like transcription modulator L34I, Q9NWH9” the abundance fitness was -1 ± 0.31.
With “BAG family molecular chaperone regulator 3 V40S, O95817” the abundance fitness was -0.745 ± 0.21.
In the case of “SAFB-like transcription modulator K53E, Q9NWH9”, the abundance fitness is reported as -0.351 ± 0.099.
Work on “SAFB-like transcription modulator T46K, Q9NWH9” yielded an abundance fitness of 0.074 ± 0.09.
Work on “BAG family molecular chaperone regulator 3 I28Q, O95817” yielded an abundance fitness of -0.307 ± 0.22.
For “SAFB-like transcription modulator K31P, Q9NWH9”, the abundance fitness was -1.16 ± 0.075.
“BAG family molecular chaperone regulator 3 G58R, O95817” gave an abundance fitness of -0.214 ± 0.08.
With “SAFB-like transcription modulator V47H, Q9NWH9” the abundance fitness was -0.329 ± 0.081.
“SAFB-like transcription modulator R26A, Q9NWH9” gave an abundance fitness of -0.12 ± 0.1.
